Laboratory results from article PMC4201289 (Genes & Development, 2014).
Each block holds one molecule with its values, some of them ahead of it.

Assays:
[1] = target: Mcm2–7 hexamer (minichromosome maintenance proteins 2–7) (S. cerevisiae) (UniProt P29469); assay: cryo-EM structure
[2] = target: T1, Mcm4 (subunit in the Mcm2–7 double hexamer) (S. cerevisiae, UniProt P30665 1-933); assay: negative stain EM, 3D reconstruction
T1 sequence: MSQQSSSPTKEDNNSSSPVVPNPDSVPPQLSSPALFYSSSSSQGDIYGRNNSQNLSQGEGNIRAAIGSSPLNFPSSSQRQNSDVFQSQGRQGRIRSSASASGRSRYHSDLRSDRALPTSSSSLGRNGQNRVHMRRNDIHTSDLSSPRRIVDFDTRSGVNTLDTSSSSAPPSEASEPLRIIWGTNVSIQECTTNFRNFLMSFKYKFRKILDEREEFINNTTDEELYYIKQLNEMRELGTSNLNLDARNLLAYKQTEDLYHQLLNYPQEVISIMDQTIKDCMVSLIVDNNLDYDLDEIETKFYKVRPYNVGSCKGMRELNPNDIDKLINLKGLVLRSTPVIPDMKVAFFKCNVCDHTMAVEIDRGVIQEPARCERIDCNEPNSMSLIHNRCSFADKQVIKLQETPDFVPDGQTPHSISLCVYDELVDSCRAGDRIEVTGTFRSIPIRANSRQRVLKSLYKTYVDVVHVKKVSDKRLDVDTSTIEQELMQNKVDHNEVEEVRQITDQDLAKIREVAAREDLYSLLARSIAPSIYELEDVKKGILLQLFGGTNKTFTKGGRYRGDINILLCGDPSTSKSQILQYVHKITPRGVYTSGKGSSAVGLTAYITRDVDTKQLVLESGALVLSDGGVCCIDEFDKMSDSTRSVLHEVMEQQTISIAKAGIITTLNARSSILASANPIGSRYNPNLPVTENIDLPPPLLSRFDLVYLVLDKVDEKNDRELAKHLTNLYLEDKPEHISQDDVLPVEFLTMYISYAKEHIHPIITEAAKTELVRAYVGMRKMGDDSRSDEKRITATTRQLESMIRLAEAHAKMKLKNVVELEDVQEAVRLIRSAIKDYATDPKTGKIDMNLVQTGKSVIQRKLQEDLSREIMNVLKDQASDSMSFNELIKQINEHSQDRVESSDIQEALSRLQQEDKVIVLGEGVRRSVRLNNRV

stoichiometry N [1]: 2
Molecule: Mcm2–7 hexamer (minichromosome maintenance proteins 2–7) (from UniProt P29469;P24279;P30665;P29496;P53091;P38132) (complex)

binding result [2]: binds
B1: Mcm5 (subunit in the Mcm2–7 double hexamer) (natural protein)
chain: MSFDRPEIYSAPVLQGESPNDDDNTEIIKSFKNFILEFRLDSQFIYRDQLRNNILVKNYSLTVNMEHLIGYNEDIYKKLSDEPSDIIPLFETAITQVAKRISILSRAQSANNNDKDPENTSMDTDSLLLNSLPTFQLILNSNANQIPLRDLDSEHVSKIVRLSGIIISTSVLSSRATYLSIMCRNCRHTTSITINNFNSITGNTVSLPRSCLSTIESESSMANESNIGDESTKKNCGPDPYIIIHESSKFIDQQFLKLQEIPELVPVGEMPRNLTMTCDRYLTNKVIPGTRVTIVGIYSIYNSKNGAGSGRSGGGNGGSGVAIRTPYIKILGIQSDVETSSIWNSVTMFTEEEEEEFLQLSRNPKLYEILTNSIAPSIFGNEDIKKAIVCLLMGGSKKILPDGMRLRGDINVLLLGDPGTAKSQLLKFVEKVSPIAVYTSGKGSSAAGLTASVQRDPMTREFYLEGGAMVLADGGVVCIDEFDKMRDEDRVAIHEAMEQQTISIAKAGITTVLNSRTSVLAAANPIYGRYDDLKSPGDNIDFQTTILSRFDMIFIVKDDHNEERDISIANHVINIHTGNANAMQNQQEENGSEISIEKMKRYITYCRLKCAPRLSPQAAEKLSSNFVTIRKQLLINELESTERSSIPITIRQLEAIIRITESLAKLELSPIAQERHVDEAIRLFQASTMDAASQDPIGGLNQASGTSLSEIRRFEQELKRRLPIGWSTSYQTLRREFVDTHRFSQLALDKALYALEKHETIQLRHQGQNIYRSGV

binding result [2]: binds
B2: Mcm2 (subunit in the Mcm2–7 double hexamer) (natural protein)
chain: MSDNRRRRREEDDSDSENELPPSSPQQHFRGGMNPVSSPIGSPDMINPEGDDNEVDDVPDIDEVEEQMNEVDLMDDNMYEDYAADHNRDRYDPDQVDDREQQELSLSERRRIDAQLNERDRLLRNVAYIDDEDEEQEGAAQLDEMGLPVQRRRRRRQYEDLENSDDDLLSDMDIDPLREELTLESLSNVKANSYSEWITQPNVSRTIARELKSFLLEYTDETGRSVYGARIRTLGEMNSESLEVNYRHLAESKAILALFLAKCPEEMLKIFDLVAMEATELHYPDYARIHSEIHVRISDFPTIYSLRELRESNLSSLVRVTGVVTRRTGVFPQLKYVKFNCLKCGSILGPFFQDSNEEIRISFCTNCKSKGPFRVNGEKTVYRNYQRVTLQEAPGTVPPGRLPRHREVILLADLVDVSKPGEEVEVTGIYKNNYDGNLNAKNGFPVFATIIEANSIKRREGNTANEGEEGLDVFSWTEEEEREFRKISRDRGIIDKIISSMAPSIYGHRDIKTAVACSLFGGVPKNVNGKHSIRGDINVLLLGDPGTAKSQILKYVEKTAHRAVFATGQGASAVGLTASVRKDPITKEWTLEGGALVLADKGVCLIDEFDKMNDQDRTSIHEAMEQQSISISKAGIVTTLQARCSIIAAANPNGGRYNSTLPLAQNVSLTEPILSRFDILCVVRDLVDEEADERLATFVVDSHVRSHPENDEDREGEELKNNGESAIEQGEDEINEQLNARQRRLQRQRKKEEEISPIPQELLMKYIHYARTKIYPKLHQMDMDKVSRVYADLRRESISTGSFPITVRHLESILRIAESFAKMRLSEFVSSYDLDRAIKVVVDSFVDAQKVSVRRQLRRSFAIYTLGH
